Test results reported in the Human Domainome abundance scans (Beltran et al. 2025).

B1: Arginine-glutamic acid dipeptide repeats protein, residues 502 to 543; numbered along this chain, Q9P2R6 (parent)
chain: LKGYACRHCFTTTSKDWHHGGRENILLCTDCRIHFKKYGELP

Variants of: B1
Assay: abundance fitness (aPCA) (normalised: wild type 0, dead -1); higher = more abundant; growth selection in yeast, the domain comes from the species named
Settings: Homo sapiens

Abundance fitness of substitutions, site by site:
G21: W -0.493; M -0.291; V -0.23; Y -0.534; Q -0.222; R -0.369; P -0.24; S -0.056; N -0.515
R22: A 0.044; M -0.172; V -0.039; H -0.221; L -0.081; E -0.02; N 0.008; G -0.048; T 0.011; Y 0.113; K 0.071; I -0.157; Q 0.029; F -0.058; P -0.027; W -0.132; C -0.067; S -0.055; D -0.026
D30: T 0.068; K -0.098; S -0.104; M -0.157; I -0.404; W -0.352; P -0.058; E -0.069; Q -0.07; L -0.29; C -0.248; G -0.044
E23: M -0.187; T -0.104; H -0.185; Y -0.489; V -0.338; Q -0.038; I -0.322; S -0.174; K -0.136; L -0.225; C -0.159; R -0.255; D 0.011; N -0.099; G -0.113
T29: G -0.13; I -0.094; E -0.105; P -0.347; C -0.096; Y 0.02; M -0.192; V -0.154; R -0.125; H -0.474; K -0.145; D -0.151; A -0.067; Q -0.106; N -0.07; L -0.089; W -0.042
N24: V -0.297; C -0.349; H -0.094; I -0.299; F -0.242; L -0.191; R -0.146; M -0.107; G -0.026; E -0.105; A -0.146; W -0.189; T -0.239; S 0; K -0.157; P -0.261; Y -0.249
L26: V -0.18; G -0.307; W -0.188; K -0.268; T -0.05; R -0.2; D -0.244; F -0.354; M 0.023; Q -0.376; S -0.36; H -0.386; Y -0.403; A -0.311; P -0.21; E -0.167; I 0.004
C31: L -1.1; D -0.527; V -1.08; R -1.16; P -1.07; A -0.981; Y -0.911; E -0.742; K -0.732; Q -1.14; W -1.33; H -0.733
I25: D -0.16; P -0.141; N -0.298; G -0.264; A -0.122; T -0.04; Y -0.187; E -0.048; M -0.15; S -0.185; L -0.05; W -0.073; C -0.258; F -0.213; V -0.015; Q -0.099; H -0.169
C28: M -1.31; K -0.841; Y -0.617; F -0.789; P -0.853; H -0.872; W -1; V -0.851; Q -0.746; S -0.789; L -1.13; E -0.685; G -0.798; A -0.873; R -0.921
L27: M -0.209; V -0.276; F -0.444; W -0.259; Y -0.301; H -0.086; I -0.172; K -0.511; G -0.494; P -0.396; Q -0.498; R -0.554; T -0.294; C -0.217; D -0.541; A -0.405; E -0.318
